Assays:
[1] = target: T1, HLA-A*0201 class I monomer of the iTopia Epitope Discovery System; assay: iTopia binding ED50
[2] = target: T1, HLA-A*0201 class I monomer of the …; assay: iTopia binding ED50; remark: listed apart in the source
[3] = target: T1, HLA-A*0201 class I monomer of the …; assay: iTopia binding ED50; remark: listed apart in the source
[4] = target: T1, HLA-A*0201 class I monomer of the …; assay: iTopia peptide binding (ED50)
[5] = target: T1, HLA-A*0201 class I monomer of the …; assay: iTopia binding ED50; remark: listed apart in the source
[6] = target: T1, HLA-A*0201 class I monomer of the …; assay: iTopia binding ED50; remark: listed apart in the source

| EC50 [1] | EC50 [2] | Binder | also measured |
| --- | --- | --- | --- |
| 2410 nM |  | GVPSIPVHPI [PSMA288-297 analog, Val at P2] |  |
| 669 nM |  | GQPSIPVHPI [PSMA288-297 analog, Gln at P2] |  |
|  | 586 nM | GLPSIPVHLI [PSMA288-297 analog, Leu at PΩ-1] |  |
|  |  | ALPSIPVHPV [PSMA288-297 analog, Ala at P1 and Val at PΩ] | EC50 [3]: 5970 nM |
|  | 447 nM | GLPSIPVHSI [PSMA288-297 analog, Ser at PΩ-1] |  |
|  | 1170 nM | GLPSIPVHPL [PSMA288-297 analog, Leu at PΩ] |  |
|  | 816 nM | GLPSIPVHAI [PSMA288-297 analog, Ala at PΩ-1] |  |
| 1070 nM |  | GMPSIPVHPI [PSMA288-297 analog, Met at P2] |  |
|  |  | ALWSIPVHPV [PSMA288-297 analog, Ala at P1, Trp at P3, Val at PΩ] | EC50 [4]: 494 nM |
| 1330 nM |  | GLPSIPVHPI [PSMA288-297] | EC50 [5]: 1330 nM; EC50 [6]: 1330 nM |
|  |  | AVPSIPVHPV [PSMA288-297 analog, Ala at P1, Val at P2, Val at PΩ] | EC50 [6]: 1080 nM |
|  | 483 nM | GLPSIPVHTI [PSMA288-297 analog, Thr at PΩ-1] |  |
